Measured values reported in the supplement of paper PMC9170038.

System: MS2 coat protein
Assay: apparent KD of MS2 coat protein; designed switch direction (-1 OFF switch, 1 ON switch): -1; higher = weaker reporter binding
Method in brief: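 Designed RNA switches with common flanks were transcribed on Illumina chips by stalled E. coli RNA polymerase and titrated with SNAP-549-labelled MS2 coat protein, from 0.7 or 1.5 nM doubling to 3 µM, in Tris-HCl pH 7.5 buffer with KCl, MgCl2, BSA, DTT, tRNA and Tween-20. Steps lasted 0.8–1.5 h (lowest) to 10–20 min (highest). Titrations ran without input, with 200 uM small-molecule ligand, or with an oligonucleotide input. Normalised cluster fluorescence was curve-fitted, and apparent KD is the per-design median over clusters.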

[1] = input ligand: microRNA oligo, concentration not stated
[2] = Eterna round: R95, input ligand: microRNA oligo, concentration not stated
[3] = Eterna round: R95, input ligand: FMN 200 uM
[4] = Eterna round: R95, input ligand: none

| Sequence | apparent KD of MS2 coat protein (input ligand: FMN 200 uM) | apparent KD of MS2 coat protein [1] | apparent KD of MS2 coat protein (input ligand: none) | apparent KD of MS2 coat protein [2] | apparent KD of MS2 coat protein [3] | apparent KD of MS2 coat protein [4] |
| --- | --- | --- | --- | --- | --- | --- |
| GUCAGCUCGUCAGGAUAUACAUGCGUGCUUCGGCACGAAUUUAAGAUCACAUGAGGAUCACCCAUGUAGAAGGGACGAGCUGAU [ENG2/3-B2] (Eterna round: R96, puzzle: Exclusion NG 2) | 819 nM | 441 nM | 600 nM | – | – | – |
| GAAUUAAUUAAUUAAUAAUACAUGAGGAUCACCCAUGUAGAUCCUACAUACAAGCUAAGUAGCUCGUCUUAUAAUUA [Stov1/2-A2] (Eterna round: R97, puzzle: Sensor, turn-off variant 1) | 313 nM | – | 261 nM | – | – | – |
| UCAUGGUAGCAGGAUAUGCUAUUUAUUUUUUAUGCAGAAGGGCUUACAUGAGGAUCACCCAUGUGUUAGGUUUA [JR_E6_Sub072] (puzzle: Exclusion 6) | – | – | – | 81.3 nM | – | – |
| CUAGCGAAUGUAGGAUAUCGGACUGUUUCAGUCUGAGAAGGACAUGAGGAUCACCCAUGUGAAGCUACGUGAGUAGCACGCUAG [JL ENG1 3.86] (Eterna round: R96, puzzle: Exclusion NG 1) | 111 nM | 18.7 nM | 23.2 nM | – | – | – |
| CUUCAUCCACCAGAGCUCACACUUAUACCUGCUCUGGUGACAUGAGGAUCACCCAUGUUUUUUGCCCGUCUUAUCUU [Sensor v3, turn-off variant 2 (MOD of Leso)] (puzzle: Sensor v3, turn-off variant 2) | – | – | – | 19.8 nM | 149 nM | 207 nM |
| UUAAUGUGAGGAUAUCAGGUGUGCUAGAGUACUGGUACAUCUGAGAAGGCACAUGAGGAUCACCCAUGUUCUUC [Mat - Exclusion 4 - Mod of JL - D54] (puzzle: Exclusion 4) | – | – | – | 34.3 nM | – | – |
| UAACAAAACUGAGGAUAUCCAUAGCAAAACGUUUGAUCCUCUACAUGAGGAUCACCCAUGUAGCAGGAGAAGGCAGAAACAAAG [Orraenso] (Eterna round: R96, puzzle: Exclusion NG 2) | 28.3 nM | 90.1 nM | 21.6 nM | – | – | – |
| AAUAAAGGCCGAGGAUAUCGGAAAGGAAGUGUACGAGAAGGUGGCAAAAGAACAUGAGGAUCACCCAUGUGGGCCGAUCUUCCG [PowerStrip EXNG 1.4] (Eterna round: R96, puzzle: Exclusion NG 1) | 33.3 nM | 28.8 nM | 29.9 nM | – | – | – |
| UGUACGAUGCGUGCUGACAUGCGUCGUGCAGCAGGUGGAACAUGAGGAUCACCCAUGUCCUCAUUUGCUCGUCUUAU [Mat - Sensor v3 - Turn-off var 2 - D21] (puzzle: Sensor v3, turn-off variant 2) | – | – | – | 155 nM | 35.2 nM | 34.6 nM |
| AUCGUGCAGCUUUGCUGUACGAGUACAUGAGGAUCACCCAUGUAGGAUAUGGUACGCUUUGCGUGCUAGAAGGAUAUGCGAUUG [EX ENG3 1.46] (Eterna round: R96, puzzle: Exclusion NG 3) | – | 36.5 nM | – | – | – | – |
| CAUAGUUGCUCAGGAUAUCAUACAUGAGGAUCACCCAUGUAAUAAAUGAGAAUUUCGAAUGUAAAUGAGAAGGGAGAAAUCUAC [Ostracism 60 - Jieux - Exclusion NG 2] (Eterna round: R96, puzzle: Exclusion NG 2) | 22.5 nM | 11.6 nM | 14.4 nM | – | – | – |
| ACACUGCGAGGAUAUACAUGAGGAUCACCCAUGUGUCGGCAGGUACGGUAGCACUAGUGUAGAAGGCGCAUUAG [EX3 #40] (Eterna round: R97, puzzle: Exclusion 3) | 17 nM | – | 15.4 nM | – | – | – |
| UACAUGAGGAUCACCCAUGUUUUGUCGUGUAUGGUAUUUAUCUAGGAUAUCAAUGUAUUUAAUUAUGAGAAGGAGAAUAUUAAU [JMF's solution 45] (Eterna round: R96, puzzle: Exclusion NG 3) | 45.4 nM | 29.6 nM | 44.6 nM | – | – | – |
